Source: US20150337037A1 (MSM PROTEIN TECHNOLOGIES, published 2015)
Where two headings read alike, the source gives them in different places.

T1: human CXCR2 (human, UniProt P25025 1-360)
T1 construct: whole, on cells
T1 sequence (looked up): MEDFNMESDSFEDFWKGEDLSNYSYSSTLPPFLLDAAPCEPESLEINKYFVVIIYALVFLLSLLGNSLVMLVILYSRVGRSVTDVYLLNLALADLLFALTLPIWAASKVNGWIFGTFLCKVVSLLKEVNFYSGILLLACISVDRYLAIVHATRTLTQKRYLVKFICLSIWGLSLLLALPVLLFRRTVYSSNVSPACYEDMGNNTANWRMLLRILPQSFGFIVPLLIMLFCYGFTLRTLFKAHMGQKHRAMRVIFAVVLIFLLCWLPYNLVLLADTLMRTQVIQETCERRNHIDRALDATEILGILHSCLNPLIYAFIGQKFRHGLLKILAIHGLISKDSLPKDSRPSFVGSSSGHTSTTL

T2: mouse CCR6 (mouse, UniProt O54689 1-367)
T2 construct: whole, on cells; gene derived from a cDNA library; also called CCR6 mouse
T2 sequence (looked up): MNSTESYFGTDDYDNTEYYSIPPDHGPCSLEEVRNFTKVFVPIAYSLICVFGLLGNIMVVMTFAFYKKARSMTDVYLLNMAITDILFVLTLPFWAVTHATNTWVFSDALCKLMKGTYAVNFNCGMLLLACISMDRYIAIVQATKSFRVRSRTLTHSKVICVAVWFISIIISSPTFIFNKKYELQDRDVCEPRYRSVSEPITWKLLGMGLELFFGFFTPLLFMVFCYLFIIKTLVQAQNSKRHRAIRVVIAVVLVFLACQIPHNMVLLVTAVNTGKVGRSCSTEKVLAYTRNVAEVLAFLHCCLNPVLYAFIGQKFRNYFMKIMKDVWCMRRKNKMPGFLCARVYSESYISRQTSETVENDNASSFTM

T3: human chemokine receptor CCR6 (human, UniProt P51684 1-374)
T3 construct: whole, on cells; gene was synthesized (codon-optimized); a C-terminal tag may be present on the expressed protein; also called CCR6 human; human CCR6
T3 sequence (looked up): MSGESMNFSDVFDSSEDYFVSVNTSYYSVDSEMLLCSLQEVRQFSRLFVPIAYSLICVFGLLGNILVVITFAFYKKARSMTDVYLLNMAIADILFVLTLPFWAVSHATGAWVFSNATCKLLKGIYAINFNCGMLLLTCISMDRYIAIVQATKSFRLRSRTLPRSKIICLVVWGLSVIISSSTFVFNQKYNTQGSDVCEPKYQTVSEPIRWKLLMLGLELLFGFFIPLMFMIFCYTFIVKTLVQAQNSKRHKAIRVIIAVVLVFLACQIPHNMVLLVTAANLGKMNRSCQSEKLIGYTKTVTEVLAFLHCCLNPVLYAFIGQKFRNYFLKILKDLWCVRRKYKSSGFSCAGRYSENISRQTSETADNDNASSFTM

T4: mouse CCR7 (mouse, UniProt P47774 25-378)
T4 construct: whole, on cells; also called CCR7ms
T4 sequence (looked up): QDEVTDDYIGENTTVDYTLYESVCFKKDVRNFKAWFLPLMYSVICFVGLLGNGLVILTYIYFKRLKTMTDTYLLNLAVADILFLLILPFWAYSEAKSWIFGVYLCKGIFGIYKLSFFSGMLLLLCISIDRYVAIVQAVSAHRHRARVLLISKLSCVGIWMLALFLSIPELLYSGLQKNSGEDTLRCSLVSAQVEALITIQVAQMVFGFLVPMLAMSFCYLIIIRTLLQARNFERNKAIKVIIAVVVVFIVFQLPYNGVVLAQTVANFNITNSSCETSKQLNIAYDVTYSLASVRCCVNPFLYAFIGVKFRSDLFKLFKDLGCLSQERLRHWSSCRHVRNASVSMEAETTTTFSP


Key:
human CXCR2 = target: T1, human CXCR2; assay: flow cytometry on GPCR-expressing cell panel
mouse CCR6 [1] = target: T2, mouse CCR6; assay: flow cytometry on CHO cells expressing mouse CCR6
cynomolgus monkey CCR6 [2] = target: T5, cynomolgus monkey CCR6 (cynomolgus monkey (Macaca Fascicularis)); assay: flow cytometry on cells expressing the target, IgG1 titration, anti-human Fc-PE
T5 construct: whole, on cells; gene derived from a total RNA library; also called CCR6 cyno; cyno CCR6

[3] = target: T3, human chemokine receptor CCR6; assay: flow cytometry on cells expressing the target, IgG1 titration (repeat of Table 2)
cynomolgus monkey CCR6 [4] = target: T5, cynomolgus monkey CCR6; assay: as above
[5] = target: T3, human chemokine receptor CCR6; assay: flow cytometry on R1610 cells expressing human CCR6, IgG1 titration, anti-human Fc-PE
[6] = target: T3, human chemokine receptor CCR6; assay: cell-based or functional assay
[7] = target: T3, human chemokine receptor CCR6; assay: cell-based or functional assay; remark: listed apart in the source
human CXCR6 = target: T6, human CXCR6 (human, UniProt O00574 1-342); assay: flow cytometry on GPCR-expressing cell panel
T6 construct: whole, on cells
T6 sequence (O00574 whole entry): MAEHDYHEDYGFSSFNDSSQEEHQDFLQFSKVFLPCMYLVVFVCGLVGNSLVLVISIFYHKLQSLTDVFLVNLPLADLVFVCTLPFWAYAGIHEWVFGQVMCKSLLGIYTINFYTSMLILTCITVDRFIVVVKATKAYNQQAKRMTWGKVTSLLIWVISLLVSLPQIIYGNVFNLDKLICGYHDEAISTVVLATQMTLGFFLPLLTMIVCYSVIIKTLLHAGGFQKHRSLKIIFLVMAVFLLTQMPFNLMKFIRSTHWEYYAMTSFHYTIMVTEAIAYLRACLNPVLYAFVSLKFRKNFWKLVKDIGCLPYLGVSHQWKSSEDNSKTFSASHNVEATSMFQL

mouse CCR7 = target: T4, mouse CCR7; assay: flow cytometry on GPCR-expressing cell panel
[8] = target: T3, human chemokine receptor CCR6; assay: flow cytometry on cells expressing the target, IgG1 titration, anti-human Fc-PE
mouse CCR6 [9] = target: T2, mouse CCR6; assay: as above
mouse CCR6 [10] = target: T2, mouse CCR6; assay: flow cytometry on cells expressing the target, IgG1 titration (repeat of Table 2)
mouse CCR6 [11] = target: T2, mouse CCR6; assay: flow cytometry on CHO cells expressing mouse CCR6; remark: listed apart in the source
Procedure: Cells have been incubated with fully human anti-human CCR6 antibodies in IgG1 format. After washing out residual unbound antibodies the cells were incubated with commercial anti-human Fc antibodies conjugated to the fluorescent dye phycoerythrin (IgG-PE). In more details, the cell staining procedure was: […] cell suspension in 10 μl FACS buffer (1×PBS, 2.0% FBS, 0.2% sodium azide) was mixed with 10 μl of 200 nM the corresponding anti-CCR6 MAB and incubated on ice for 30 min. Washing step—after the incubation 150 μl of FACS buffer was added to the cell sample, the samples were mixed gently by up-down pipetting the cell suspension. Then the samples were centrifuged at 1100 rpm for 5 minutes, and supernatants were removed. Washing step was repeated ones. Then 10 μl of anti-human PE-(Fab)2 form Jackson Immuno Research Lab. #709-116-098 diluted 40 times in FACS buffer were added to the cells and the cells were re-suspended by up-down pipetting. After 20 min. incubation on ice in dark the washing step was repeated twice. The washed cells were mixed with 100 μl of FIX buffer (0.5% Paraformaldehyde solution in PBS). Fixed samples were stored in dark on ice and analyzed by FACS on Guava PCA-96 flow cytometer.

Row | Binder | binding result (human CXCR2) | binding result (mouse CCR6 [1]) | EC50 (cynomolgus monkey CCR6 [2]) [nM] | EC50 [3] [nM] | EC50 (cynomolgus monkey CCR6 [4]) [nM] | EC50 [5] [nM] | IC50, nM CCL20-Ca-Flux [6] [nM] | Ca-Flux IC50, nM CCR6/CCL20 [7] [nM] | binding result (human CXCR6) | binding result (mouse CCR7) | EC50 [8] [nM] | EC50 (mouse CCR6 [9]) [nM] | EC50 (mouse CCR6 [10]) [nM] | binding result (mouse CCR6 [11])
1 | MSM-R614 IgG1 (antibody, V domains shown, Fully human IgG1) VH: EVQLLESGGGLVQPGGSLRLSCPASGFTFTRSAMSWVRQAPGKGLEWVSYINSSGGGTYYADSVKGRFTISRDNSKNTLYLQMNSLRAEDTAVYYCARARFIWGFDYWGQGTLVTVSS VL: EIVLTQSPGTLSLSPGERATLSCRASQSVSSSYLAWYQQKPGQAPRLLIYGASSRATGIPDRFSGSGSGTDFTLTISRLEPEDFAVYYCQQWYWAPVTFGQGTKVEIKR | binds | no binding | 3 | 2.5 | 3 | 2.5 | – | – | – | – | – | – | – | –
2 | MSM-R605 IgG1 (antibody, Fully human IgG1) heavy: not shown light: EIVLTQSPGTLSLSPGERATLSCRASQSVSSSYLAWYQQKPGQAPRLLIYGASSRATGIPDRFSGSGSGTDFTLTISRLEPEDFAVYYCQQSRATPLTFGQGTKVEIKRTVAAPSVFIFPPSDEQLKSGTASVVCLLNNFYPREAKVQWKVDNALQSGNSQESVTEQDSKDSTYSLSSTLTLSKADYEKHKVYACEVTHQGLSSPVTKSFNRGEC | – | – | 1.8 | 1 | 1.8 | – | 1.5 | 1.5 | binds | binds | 1 | 1.6 | 1.6 | –
3 | MSM-R601 IgG1 (antibody, V domains shown, Fully human IgG1 made in transiently transfected CHO cells; HC AA / LC AA entries are full chains) VH: EVQLLESGGGLVQPGGSLRLSCAASGFTFSSYAMSWVRQAPGKGLEWVSAISGSGGSTYYADSVKGRFTISRDNSKNTLYLQMNSLRAEDTAMYYCARHGYSATRQGLDYWGQGTLVTVSS VL: not shown | – | – | 14.5 | 25 | 14.5 | – | – | – | – | – | 25 | – | – | no binding
